Measured values from US20160009806A1 (Seagen, published 2016).
Numbering of substitutions follows the chain as printed.

Assays:
[1] = target: T1, human integrin αvβ6 on cells (human, UniProt P06756 31-1048; P18564 22-788); assay: cell-based or functional assay
[2] = target: T1, human integrin αvβ6 on cells; assay: saturation binding of biotinylated antibody, flow cytometry on 293F:huβ6 cells (apparent Kd)
Description: (§1) 0.25-0.5×10⁶ antigen expressing cells were aliquoted per well into a 96-well v-bottom plate. m15H3, h15H3 (HBLC) and h15H3 (HTLC) were directly labeled with equivalent levels of biotin and added to cells at concentrations ranging from 0.1 pM-150 nM. Cells were incubated on ice for 30 minutes, washed three times in FACS buffer (PBS, 2% fetal bovine serum, 1 mM MgCl₂, 1 mM CaCl₂, 0.02% NaN₃), incubated on ice for 45 minutes with PE conjugated streptavidin (0.5 ug/ml) in FACS buffer, washed three times and resuspended in FACS buffer. Binding was detected using a Becton Dickinson Biosciences FACSCalibur (San Jose, Calif.). The apparent Kd was calculated using GraphPad Software (LaJolla, Calif.).

[3] = target: T2, integrin αvβ5 on the parental line 293F:vector (human, UniProt P06756 31-1048; P18084 24-799); assay: FMAT and FACS binding on cells
T2 construct: whole, on cells; Negative control cells; also called HEK293F:vector
T2 sequence (P06756 31-1048, chain 1 of 2): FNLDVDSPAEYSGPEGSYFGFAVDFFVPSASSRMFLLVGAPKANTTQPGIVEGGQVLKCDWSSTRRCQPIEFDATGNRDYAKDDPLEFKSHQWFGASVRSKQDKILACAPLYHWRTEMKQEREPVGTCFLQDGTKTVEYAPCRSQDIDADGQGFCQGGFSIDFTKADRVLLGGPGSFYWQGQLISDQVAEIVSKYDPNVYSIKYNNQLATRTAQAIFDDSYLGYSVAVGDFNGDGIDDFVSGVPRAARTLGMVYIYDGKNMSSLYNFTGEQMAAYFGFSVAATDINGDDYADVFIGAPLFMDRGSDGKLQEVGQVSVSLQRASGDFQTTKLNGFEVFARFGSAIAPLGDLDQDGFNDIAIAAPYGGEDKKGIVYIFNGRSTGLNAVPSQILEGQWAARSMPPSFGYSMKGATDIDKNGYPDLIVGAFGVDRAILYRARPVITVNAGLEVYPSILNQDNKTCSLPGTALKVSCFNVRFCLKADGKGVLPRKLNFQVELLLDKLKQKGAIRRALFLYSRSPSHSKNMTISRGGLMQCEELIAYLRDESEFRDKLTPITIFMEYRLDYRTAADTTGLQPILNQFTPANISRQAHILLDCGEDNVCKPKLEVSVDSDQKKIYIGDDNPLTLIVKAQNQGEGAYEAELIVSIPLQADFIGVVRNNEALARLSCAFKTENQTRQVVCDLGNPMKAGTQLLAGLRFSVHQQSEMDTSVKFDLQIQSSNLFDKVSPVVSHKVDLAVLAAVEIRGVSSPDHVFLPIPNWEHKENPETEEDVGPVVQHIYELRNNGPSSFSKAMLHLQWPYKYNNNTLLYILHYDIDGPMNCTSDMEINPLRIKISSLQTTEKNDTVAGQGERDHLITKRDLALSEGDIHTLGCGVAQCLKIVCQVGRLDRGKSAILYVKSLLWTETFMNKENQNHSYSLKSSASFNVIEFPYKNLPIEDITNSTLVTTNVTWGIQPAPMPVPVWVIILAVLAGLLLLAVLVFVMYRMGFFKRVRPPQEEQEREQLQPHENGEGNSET
T2 sequence (P18084 24-799, chain 2 of 2): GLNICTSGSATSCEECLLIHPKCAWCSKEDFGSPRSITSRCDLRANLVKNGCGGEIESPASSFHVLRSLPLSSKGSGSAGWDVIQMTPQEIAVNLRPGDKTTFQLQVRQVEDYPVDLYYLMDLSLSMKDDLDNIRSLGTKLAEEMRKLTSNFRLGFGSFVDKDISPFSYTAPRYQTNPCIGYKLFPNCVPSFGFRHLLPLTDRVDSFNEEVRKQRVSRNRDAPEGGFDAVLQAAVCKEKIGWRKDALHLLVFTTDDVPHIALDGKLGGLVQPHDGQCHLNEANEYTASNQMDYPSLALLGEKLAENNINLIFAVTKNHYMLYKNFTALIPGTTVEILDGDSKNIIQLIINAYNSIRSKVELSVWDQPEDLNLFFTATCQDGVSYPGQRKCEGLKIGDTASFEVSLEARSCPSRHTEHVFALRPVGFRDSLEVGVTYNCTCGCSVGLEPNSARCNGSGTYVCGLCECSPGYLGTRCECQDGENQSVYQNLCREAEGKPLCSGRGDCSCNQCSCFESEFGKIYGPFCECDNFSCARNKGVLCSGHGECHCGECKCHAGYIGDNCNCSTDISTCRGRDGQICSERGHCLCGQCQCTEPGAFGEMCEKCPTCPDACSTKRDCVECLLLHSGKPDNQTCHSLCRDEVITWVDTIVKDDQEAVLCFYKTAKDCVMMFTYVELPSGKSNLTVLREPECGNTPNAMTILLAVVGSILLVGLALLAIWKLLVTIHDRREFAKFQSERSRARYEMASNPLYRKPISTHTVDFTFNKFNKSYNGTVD

[4] = target: T3, rat integrin αvβ6 on NBT-II bladder carcinoma cells (rat, UniProt F1LZX9 31-1043; Q6AYF4 22-787); assay: saturation binding of biotinylated antibody, flow cytometry on rat NBT-II cells (apparent Kd)
T3 construct: whole, on cells; Endogenous αvβ6 of rat NBT-II cells; also called rat αvβ6; rat NBT-II
Description: as §1
The KD for the murine αvβ6 monoclonal antibody 15H3 antibody and select humanized version thereof was determined for human, cyno, rat, and mouse. […] The genetically engineered cell lines express endogenous αv which pairs with the recombinant β6 chain to produce a heterodimeric receptor composed of endogenous αv and recombinant β6. The affinity for rat αvβ6 was determined using rat NBT-II bladder carcinoma cells, which expression endogenous αvβ6.

[5] = target: T4, cynomolgus integrin αvβ6 on 293F:cynoβ6 cells (human; cynomolgus, UniProt P06756 31-1048; A0A2K5TZ36 22-787); assay: saturation binding of biotinylated antibody, flow cytometry on 293F:cynoβ6 cells (apparent Kd)
T4 construct: whole, on cells; also called HEK293F:cynoβ6
Description: as §1

[6] = target: T5, mouse integrin αvβ6 on FDC-P1:muβ6 cells (mouse, UniProt P43406 31-1044; Q9Z0T9 22-787); assay: saturation binding of biotinylated antibody, flow cytometry on FDC-P1:muβ6 cells (apparent Kd)
T5 construct: whole, on cells; Heterodimer of endogenous mouse αv and recombinant mouse β6
T5 sequence (P43406 31-1044, chain 1 of 2): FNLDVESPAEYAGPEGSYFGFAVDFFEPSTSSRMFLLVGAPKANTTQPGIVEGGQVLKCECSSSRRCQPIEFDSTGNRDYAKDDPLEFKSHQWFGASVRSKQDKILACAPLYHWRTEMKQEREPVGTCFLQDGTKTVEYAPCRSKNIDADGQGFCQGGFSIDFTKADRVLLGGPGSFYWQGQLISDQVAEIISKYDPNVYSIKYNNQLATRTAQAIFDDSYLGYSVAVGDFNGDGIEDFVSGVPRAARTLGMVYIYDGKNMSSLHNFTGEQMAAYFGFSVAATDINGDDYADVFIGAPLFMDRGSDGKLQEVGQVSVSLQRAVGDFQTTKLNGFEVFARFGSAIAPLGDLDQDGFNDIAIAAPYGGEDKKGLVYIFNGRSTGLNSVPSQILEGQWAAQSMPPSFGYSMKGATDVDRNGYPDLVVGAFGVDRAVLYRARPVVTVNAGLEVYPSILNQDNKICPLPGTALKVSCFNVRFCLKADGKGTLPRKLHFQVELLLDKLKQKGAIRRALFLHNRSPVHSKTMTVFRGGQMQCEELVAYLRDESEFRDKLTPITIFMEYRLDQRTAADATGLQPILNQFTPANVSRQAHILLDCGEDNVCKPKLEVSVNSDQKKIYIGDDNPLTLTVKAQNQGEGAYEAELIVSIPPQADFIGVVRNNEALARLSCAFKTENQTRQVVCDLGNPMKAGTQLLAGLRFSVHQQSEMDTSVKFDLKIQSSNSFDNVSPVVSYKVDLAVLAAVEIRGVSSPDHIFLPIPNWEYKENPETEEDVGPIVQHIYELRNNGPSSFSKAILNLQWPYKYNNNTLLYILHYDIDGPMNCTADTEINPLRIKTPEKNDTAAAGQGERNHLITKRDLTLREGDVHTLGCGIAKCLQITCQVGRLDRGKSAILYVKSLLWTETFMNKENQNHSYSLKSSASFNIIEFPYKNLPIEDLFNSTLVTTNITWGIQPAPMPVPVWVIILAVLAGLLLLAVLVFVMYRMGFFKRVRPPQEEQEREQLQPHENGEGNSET
T5 sequence (Q9Z0T9 22-787, chain 2 of 2): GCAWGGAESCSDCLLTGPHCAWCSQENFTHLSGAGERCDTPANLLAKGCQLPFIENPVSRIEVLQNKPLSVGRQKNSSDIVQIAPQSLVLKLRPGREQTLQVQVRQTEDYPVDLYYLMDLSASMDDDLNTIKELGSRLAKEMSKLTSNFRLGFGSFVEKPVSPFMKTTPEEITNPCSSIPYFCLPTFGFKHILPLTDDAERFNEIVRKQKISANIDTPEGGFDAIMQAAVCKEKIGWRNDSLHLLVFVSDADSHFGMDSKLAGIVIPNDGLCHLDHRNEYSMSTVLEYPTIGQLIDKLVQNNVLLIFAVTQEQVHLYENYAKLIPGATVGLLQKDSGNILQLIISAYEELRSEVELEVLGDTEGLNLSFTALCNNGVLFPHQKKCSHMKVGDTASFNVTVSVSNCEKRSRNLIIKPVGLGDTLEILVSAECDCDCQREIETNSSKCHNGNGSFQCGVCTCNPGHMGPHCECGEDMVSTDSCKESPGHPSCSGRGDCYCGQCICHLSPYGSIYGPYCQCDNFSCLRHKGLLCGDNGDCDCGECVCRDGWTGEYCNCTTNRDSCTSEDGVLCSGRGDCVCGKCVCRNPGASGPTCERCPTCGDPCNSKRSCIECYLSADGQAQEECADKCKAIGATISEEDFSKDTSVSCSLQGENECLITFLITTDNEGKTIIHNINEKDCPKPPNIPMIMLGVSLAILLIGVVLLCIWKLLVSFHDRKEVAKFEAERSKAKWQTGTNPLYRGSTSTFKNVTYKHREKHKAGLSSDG
Description: as §1

recombinant αvβ8 = target: T6, recombinant αvβ8 (human, UniProt P06756 31-992; P26012 43-684); assay: ELISA, integrin coated at 1 ug/ml, biotinylated antibody
T6 construct: Bought from R&D Systems; species read from 'recombinant human αvβ6, αvβ3 and αvβ8'
Description: (§2) 96-well Maxisorb plates (Nunc) were coated overnight at 4° C. with 1 ug/ml of recombinant human αvβ6, αvβ3 and αvβ8 diluted in PBS. Plates were washed in PBS with 0.05% Tween 20 (PBS-T). Wash buffer was removed and plates were blocked for 30 minutes at room temperature in TBS blocking buffer (TBS plus 1 mM MnCl₂, 0.05% Tween 20, 1% BSA). Plates were washed and then incubated for 1 hour with biotinylated antibody (m15H3 or h15H3) diluted in TBS blocking buffer at concentrations that ranged from 4.6 ng/m1-10 ug/ml. Plates were washed, incubated for 1 hour with 1 ug/ml of HRP-streptavidin, washed, and then incubated with TMB substrate for 10 minutes. The reaction was stopped with 1 M H₂SO₄. Absorbance at 450 nm was read using a Fusion HT plate reader (Perkin Elmer, Waltham, Mass.).
(§3) BALB/c mice were immunized three times with intraperitoneal injections of ˜5×10⁶ 3 T3:huβ6 transfectants. Three days prior to fusion, mice received a final injection of purified recombinant human αvβ6 that was given intravenously (6 ug) and intraperitoneally (30 ug). Lymphocytes harvested from spleen and lymph nodes were fused to P3X63Ag8.653 myeloma cells using polyethylene glycol. Fused cells were recovered overnight in hybridoma growth media (IMDM containing 4 mM glutamine, 10% Fetal Clone I, 10% Cloning Factor and Penicillin/Streptomycin). […] The plates were read in an FMAT 8200 (Applied Biosystems).

recombinant αvβ3 = target: T7, recombinant αvβ3 (human, UniProt P06756 31-992; P05106 27-718); assay: as above
T7 construct: Bought from R&D Systems; species read from 'recombinant human αvβ6, αvβ3 and αvβ8'
Description: as §2, §3

[7] = target: T1, human integrin αvβ6 on cells; assay: competition binding, flow cytometry on 293F cells expressing αvβ6; competitor 2 nM AlexaFluor-647 m15H3
Description: (§4) 1×10⁵ antigen expressing cells were aliquoted in each well of a 96-well v-bottom plate on ice. […] Cells were pelleted and washed 3 times with PBS. The cells were pelleted and resuspended in 125 uL of PBS/BSA. Fluorescence was analyzed by flow cytometery, using percent of saturated fluorescent signal to determine percent labeled murine 15H3 bound and to subsequently extrapolate the EC50 by fitting the data to a sigmoidal dose-response curve with variable slope.

[8] = target: T1, human integrin αvβ6 on cells; assay: competition binding on 293F cells expressing human αvβ6 (FIG. 2)
Description: as §4

T1 sequence (P06756 31-1048, chain 1 of 2): as the sequence (P06756 31-1048, chain 1 of 2) above
T1 sequence (P18564 22-788, chain 2 of 2): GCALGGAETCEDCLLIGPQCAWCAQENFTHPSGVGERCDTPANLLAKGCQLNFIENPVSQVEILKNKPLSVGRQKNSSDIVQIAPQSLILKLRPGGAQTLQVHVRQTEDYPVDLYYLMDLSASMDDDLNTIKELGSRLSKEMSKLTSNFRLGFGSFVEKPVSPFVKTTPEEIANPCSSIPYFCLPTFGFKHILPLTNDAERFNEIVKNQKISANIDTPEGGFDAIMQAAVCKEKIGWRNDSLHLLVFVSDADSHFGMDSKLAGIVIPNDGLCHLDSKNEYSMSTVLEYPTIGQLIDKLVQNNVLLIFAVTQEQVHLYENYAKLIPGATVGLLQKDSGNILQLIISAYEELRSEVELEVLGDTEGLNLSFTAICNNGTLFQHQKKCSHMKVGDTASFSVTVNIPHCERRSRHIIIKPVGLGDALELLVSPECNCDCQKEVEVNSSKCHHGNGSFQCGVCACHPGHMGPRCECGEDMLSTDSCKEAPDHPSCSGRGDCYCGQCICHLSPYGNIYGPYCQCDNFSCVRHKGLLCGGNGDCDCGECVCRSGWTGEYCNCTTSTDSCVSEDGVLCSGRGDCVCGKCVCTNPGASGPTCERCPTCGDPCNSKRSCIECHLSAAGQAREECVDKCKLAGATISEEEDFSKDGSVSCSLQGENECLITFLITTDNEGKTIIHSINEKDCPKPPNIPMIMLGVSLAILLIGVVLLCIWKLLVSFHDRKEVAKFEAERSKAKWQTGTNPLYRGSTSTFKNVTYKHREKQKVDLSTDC

B1: murine 15H3 antibody conjugated with vcMMAE (antibody, V domains shown)
VH: EVQLQQSGPELVKPGASVKISCKASGYSFSGYFMNWVKQSHGQSLEWIGLINPYNGDSFYNQKFKGKATLTVQKSSSTAHMELQSLTSEDSAVFYCVRGLRRDFDYWGQGTPLTVSS
VL: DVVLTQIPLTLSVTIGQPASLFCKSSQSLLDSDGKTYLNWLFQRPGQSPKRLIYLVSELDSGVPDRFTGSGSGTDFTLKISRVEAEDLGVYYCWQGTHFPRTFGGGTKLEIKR
modifications: vcMMAE drug-linker conjugated to the antibody (site and loading not stated for the murine ADC)
Question: How did the “IC50 (ng/ml), cytotoxicity assay on 5637 cells (36 x10^3 αvβ6 copies/cell)” value [1] turn out when B1 was run?
Answer: > 1000 ng/mL

Question: And the “IC50 (ng/ml), cytotoxicity assay on BxPC3 cells (37 x10^3 αvβ6 copies/cell)” value [1]?
Answer: 34 ng/mL

Question: What about the “IC50 (ng/ml), cytotoxicity assay on Capan-1 cells (19 x10^3 αvβ6 copies/cell)” value [1] of the same binder?
Answer: 365 ng/mL

Question: What about the “IC50 (ng/ml), cytotoxicity assay on HPAFII cells (22 x10^3 αvβ6 copies/cell)” value [1] of the same binder?
Answer: 76 ng/mL

Question: And the “IC50 (ng/ml), cytotoxicity assay on HupT4 cells (184 x10^3 αvβ6 copies/cell)” value [1]?
Answer: 35 ng/mL

Question: And the “IC50 (ng/ml), cytotoxicity assay on Panc08.13 cells (137 x10^3 αvβ6 copies/cell)” value [1]?
Answer: 93 ng/mL

Question: What about the “IC50 (ng/ml), cytotoxicity assay on RT4 cells (42 x10^3 αvβ6 copies/cell)” value [1] of the same binder?
Answer: > 1000 ng/mL

Question: What about the “IC50 (ng/ml), cytotoxicity assay on SW780 cells (80 x10^3 αvβ6 copies/cell)” value [1] of the same binder?
Answer: 614 ng/mL

B2: murine 15H3 antibody conjugated with mcMMAF (antibody, V domains shown)
VH: B1 VH
VL: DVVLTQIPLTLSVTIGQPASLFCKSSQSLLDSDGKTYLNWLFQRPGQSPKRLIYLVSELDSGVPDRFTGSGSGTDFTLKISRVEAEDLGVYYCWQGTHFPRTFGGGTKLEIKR
modifications: mcMMAF drug-linker conjugated to the antibody (site and loading not stated for the murine ADC)
Question: For B2, which “IC50 (ng/ml), cytotoxicity assay on 5637 cells (36 x10^3 αvβ6 copies/cell)” value [1] is on record?
Answer: > 1000 ng/mL

Question: What about the “IC50 (ng/ml), cytotoxicity assay on BxPC3 cells (37 x10^3 αvβ6 copies/cell)” value [1] of the same binder?
Answer: 7 ng/mL

Question: And the “IC50 (ng/ml), cytotoxicity assay on Capan-1 cells (19 x10^3 αvβ6 copies/cell)” value [1]?
Answer: 1510 ng/mL

Question: What about the “IC50 (ng/ml), cytotoxicity assay on HPAFII cells (22 x10^3 αvβ6 copies/cell)” value [1] of the same binder?
Answer: > 2000 ng/mL

Question: What about the “IC50 (ng/ml), cytotoxicity assay on HupT4 cells (184 x10^3 αvβ6 copies/cell)” value [1] of the same binder?
Answer: 16 ng/mL

Question: What about the “IC50 (ng/ml), cytotoxicity assay on Panc08.13 cells (137 x10^3 αvβ6 copies/cell)” value [1] of the same binder?
Answer: 1400 ng/mL

Question: What about the “IC50 (ng/ml), cytotoxicity assay on RT4 cells (42 x10^3 αvβ6 copies/cell)” value [1] of the same binder?
Answer: > 1000 ng/mL

Question: What about the “IC50 (ng/ml), cytotoxicity assay on SW780 cells (80 x10^3 αvβ6 copies/cell)” value [1] of the same binder?
Answer: 86 ng/mL

B3: murine 15H3 monoclonal antibody (antibody, V domains shown)
VH: B1 VH
VL: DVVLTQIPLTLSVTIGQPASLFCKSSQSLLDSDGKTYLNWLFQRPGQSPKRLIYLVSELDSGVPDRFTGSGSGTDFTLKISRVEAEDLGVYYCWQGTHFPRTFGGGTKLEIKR
notes: Murine hybridoma antibody; also called m15H3; mouse 15H3
Question: Which Kd [2] does the source give for B3 here?
Answer: 0.8 nM

Question: Does B3 bind [3]?
Answer: no binding

Question: And the Kd [4]?
Answer: 0.2 nM

Question: What about the Kd [5] of the same binder?
Answer: 1 nM

Question: And the Kd [6]?
Answer: 0.2 nM

Question: Does B3 bind (recombinant αvβ8)?
Answer: no binding (tested: 4.6 ng/ml-10 ug/ml)

Question: Does B3 bind (recombinant αvβ3)?
Answer: no binding (tested: 4.6 ng/ml-10 ug/ml)

B4: humanized 15H3 antibody HBLC (antibody, V domains shown)
VH: QVQLVQSGAEVKKPGASVKVSCKASGYSFSGYFMNWVRQAPGQGLEWMGLINPYNGDSFYNQKFKGRVTMTRDTSTSTVYMELSSLRSEDTAVYYCARGLRRDFDYWGQGTLVTVSS
VL: DVVMTQSPLSLPVTLGQPASISCKSSQSLLDSDGKTYLNWLFQRPGQSPRRLIYLVSELDSGVPDRFSGSGSGTDFTLKISRVEAEDVGVYYCWQGTHFPRTFGGGTKLEIKR
notes: Only variable regions are tied to the construct; also called h15H3 (HBLC); h15H3-1
Question: Which results are given for B4?
Answer: Kd [2]: 1.4 nM; EC50 [7]: 8.14 nM; Kd [5]: 1.6 nM; Kd [6]: 0.6 nM

B5: humanized 15H3 antibody HSLC (antibody, V domains shown)
VH: B4 VH with D73Q, T76S, V79A
VL: B4 VL
Question: For B5, which EC50 [7] is on record?
Answer: 32.5 nM

B6: humanized 15H3 antibody HRLC (antibody, V domains shown)
VH: B4 VH with T76S, V79A
VL: B4 VL
Question: Which EC50 [7] does the source give for B6 here?
Answer: 26.7 nM

B7: humanized 15H3 antibody HBLA (antibody, V domains shown)
VH: B4 VH
VL: B4 VL with L41F, F42Q
notes: HB heavy chain with LA light chain of the first humanization round
Question: Does B7 bind [8]?
Answer: binds

B8: humanized 15H3 antibody HNLC (antibody, V domains shown)
VH: B4 VH with D73Q
VL: B4 VL
Question: How did the EC50 [7] turn out when B8 was run?
Answer: 11.1 nM

B9: humanized 15H3 antibody HBLF (antibody, V domains shown)
VH: B4 VH
VL: B4 VL with I21L, S22F, R50K, S68T
notes: HB heavy chain with LF light chain of the first humanization round
Question: Does B9 bind [8]?
Answer: binds

B10: humanized 15H3 antibody HULC (antibody, V domains shown)
VH: B4 VH with D73Q, T74K, T76S, V79A, A97V
VL: B4 VL
Question: With B10 as the binder, how does the EC50 [7] read?
Answer: 0.93 nM

B11: humanized 15H3 antibody HMLG (antibody, V domains shown)
VH: B4 VH with D73Q, T74K, T76S, V79A
VL: B4 VL with M4L
Question: Which EC50 [7] does the source give for B11 here?
Answer: 1.07 nM

B12: humanized 15H3 antibody HBLE (antibody, V domains shown)
VH: B4 VH
VL: B4 VL with L41F, F42Q, S68T
notes: HB heavy chain with LE light chain of the first humanization round
Question: Does B12 bind [8]?
Answer: binds

B13: humanized 15H3 antibody HTLC (antibody, V domains shown)
VH: B4 VH with D73Q, A97V
VL: B4 VL
notes: Only variable regions are tied to the construct; also called h15H3 (HTLC); h15H3-3
Question: B13 was tested. Which Kd [2] did it give?
Answer: 1.2 nM

Question: What about the EC50 [7] of the same binder?
Answer: 3.7 nM

Question: And the Kd [4]?
Answer: 0.4 nM

Question: What about the Kd [5] of the same binder?
Answer: 1.5 nM

Question: What about the Kd [6] of the same binder?
Answer: 0.3 nM

B14: humanized 15H3 antibody HLLC (antibody, V domains shown)
VH: B4 VH with T74K, T76S, V79A
VL: B4 VL
notes: also called h15H3-2
Question: Which EC50 [7] does the source give for B14 here?
Answer: 0.74 nM

B15: humanized 15H3 antibody HMLC (antibody, V domains shown)
VH: B4 VH with D73Q, T74K, T76S, V79A
VL: B4 VL
Question: With B15 as the binder, how does the EC50 [7] read?
Answer: 0.49 nM

B16: humanized 15H3 antibody HRLG (antibody, V domains shown)
VH: B4 VH with T76S, V79A
VL: B4 VL with M4L
Question: How did the EC50 [7] turn out when B16 was run?
Answer: 23.9 nM

B17: humanized 15H3 antibody HLLG (antibody, V domains shown)
VH: B4 VH with T74K, T76S, V79A
VL: B4 VL with M4L
Question: With B17 as the binder, how does the EC50 [7] read?
Answer: 0.97 nM

B18: humanized 15H3 antibody HNLG (antibody, V domains shown)
VH: B4 VH with D73Q
VL: B4 VL with M4L
Question: With B18 as the binder, how does the EC50 [7] read?
Answer: 3.16 nM

B19: humanized 15H3 antibody HBLB (antibody, V domains shown)
VH: B4 VH
VL: B4 VL with I21L, S22F, L41F, F42Q
notes: HB heavy chain with LB light chain of the first humanization round
Question: Does B19 bind [8]?
Answer: binds

B20: humanized 15H3 antibody HBLD (antibody, V domains shown)
VH: B4 VH
VL: B4 VL with L41F, F42Q, R50K
notes: HB heavy chain with LD light chain of the first humanization round
Question: Does B20 bind [8]?
Answer: binds
